Experiment: yeast display, Sf9 membrane polyspecificity reagent, FACS + sequencing; frameworks hold sequencing errors
How it was run: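 Nanobodies from a synthetic yeast display library (Saccharomyces cerevisiae BJ5465), induced 36–48 hours with galactose, were stained 1 hour at 4 °C with 10% biotinylated, detergent-solubilized Sf9 membrane reagent, enriched on streptavidin microbeads, then FACS-sorted. Anti-HA (expression) and streptavidin (reagent binding) fluorescence set low and high (top ~1%) gates. Polyreactivity labels come from the gate of origin. Genes were colony-PCR amplified, MiSeq 2 × 250 sequenced and filtered by CDR length.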

Sequence	polyreactivity (PSR sort gate)
QVQLVESGGGLVQAGGSLRLSCAASGTTNDYYDMGWYRQAPGKERELDAAISSGGDSTYYADSVMGRFTISRDNAKNTVYLQMNSLKPEDTAVYYCAAAVYYGQSVWYYYWGQGTEVTVSS	high polyreactivity
QVQLVESGGGLVQAGGSLRLSCAASGSTFYFYAMGWYRPAPGKERELVAAITYSGGSTYYADSVKGRFTISRDNAKNTVYLQMNSLKPEDTAVYYCAAQWRRHSTRSRYYYWGQGSQVTVSS	high polyreactivity
QVQLVESGGGLVQAGGSLRLSCAASGLTFSENAMGWYRQAPGKERELVAAISWSGTTTYYADSVKGRFTISRDNAKNTVYLQMNSLKPEDTAVYYCAADTIFYGYWGQGTQVTVSS	low polyreactivity
QVQLVESGGGLVQAGGSLRISCAASGGTFTKNAMGWYRQAPGKERELLAAISWRGTSTYYADSVKGRFTISRDNAKNTVYLQMNSLKPEDTAVYYCNTDRYFRRYYWYDYWGQGTQVTVSS	high polyreactivity
QVHLVESGGGLVQAGGSLRLSCDASGRIFKYNAMGWYRQAPGKERELVAAISSGGSTNYADSVKGRFTISRDNAKNTVYLQMNSLKPEDTAVYDCAADGTRVSSFHYLVWLCYWGQGTQVTVSS	low polyreactivity
QVQLVESGGGLVQAGGSLRLSCAASGRTLGGYTMGWYRQAPGKERELVAAITTGGSTNYADSVKGRFTISRDNAKNTVYLQMNSLKPEDTAVYYCATELVFDKRYWYDYWGQGTQVTVSS	low polyreactivity
QVQLVESGGGLVQAGGSLRLSCAASGRTFATNAMGWYRQAPGKERELVAAISRRGASTYYADSVKGRFTISRDNAKNTVYLQMNSLKPEDTAVYYCAARQYIRGARIYDYWGQGTQVTVSS	high polyreactivity
QVQLVESGGGLVQAGGSLRLSCAASGSTFNGNVMGWYRQAPGKDRELVAGISKSGGTTYYADSVKGRFTISRDNAKNTVYLQMNSLKPEDTAVYYCDARGRVRYYPQYDYWGQGTQVTVSS	high polyreactivity
QDQHVESGGGLVQAGGSLRLSGAASGGTLWVNTMGWYRPAPGKERELVAAISRRGGSTYYADSVKGRFTISRDNAKNTVYLQMNSLKPEDTAVYYCAKGYSSHYWWAYDSWGQGTLVTVSS	high polyreactivity
QVQLVESGGGLVQAGGSLRLSCAASGRTFWVYAMGWNRQATGKERELVATISKSAGITSYADSVKGRFTFSRDNAKNTVYLQMNSLKPEDTAVYYCAADKSYRRVYYWGQGTQVTVSS	low polyreactivity
QVQLVESGGGLVQAGGSLRLSCAASGLTFSPYAMGWYRQAPGKERELVATITIGGSTKYADSVKGRFTISRDNAKNTVYLQMNSLKPEDPAVYYCAVRSGYVTRRYDYWGQGTQVTVSS	low polyreactivity
QVQLVESGGGLVQAGRTLRLRCAASVSTVPYAMGWYSPAPGKERELVAAISKSAGRSYYADYVKGRFTISRENAKNTVYLQMNSLKPEDTAVYYCAARQSYYGHDYWGQGTQVTVSS	high polyreactivity
QVHLVESGGGLVQAGGSLRLSCAASGIIFPSYAMGWYRQAPGKERELVAAIDGSGGITYYADSVKGRFTISRDNAKNTVYLQLNSLKPEDTAVYYCNAEREYYDYGNDDYWGPGTQVTVSS	low polyreactivity
QVQLVESGGGLVQAGGSLRLSCAASGSTFPSNVMGWYRQAPGKERELVAAITWSGGRTYYADSVKGRFTISRDNAKNTVYLQMNSLKPEDTAVYYCAVRSSYVRYDYWGKGTQVTVSS	high polyreactivity
QVQLVESGGGLVQAGGSLRLSCAASGRIFDYYAMGWYRQAPGKERELVAAITRGGSTYYADSVKGRFTISRDNAKNTVYLQLNSLNPVDTEVYYCAASIGIRFIKYDYWGQGAQVTVSS	high polyreactivity
QVQLVDSGGGLVQAGGSLRLSCAASGRIFYVYAMGWYRQATGKERQLVASIRYSGATTYYADSVKGRFTISLDNAKNTVYLQMNSLKPEDTAVYYCAADTLGTPAYRYEYWGQGTQVTVSS	low polyreactivity
QVQLVESGGGLVQAGGSLRLSCAASGSTWYYAMGWYRQAPGKERELVATISSGSRTYYADSVKGRFTISRDNAKNTVYLQMNSLKPEDTAVYYCAARESYAELNYWGQGTQVTVSS	high polyreactivity
QVQLVESGGGLLQAGGSLRLSCAASGSIFGQYAMGWYIQAPGKERELVAAISTRGGSTRYADSVKGRFTISRDNAKNTVYLQMNSLKPEDTAVYYCAARVPYIRHLAVDYWGQGTQVTVSS	high polyreactivity
QVQLVESGAGLVQAGGSLGLSCAPSGRIFGRYVRGWYRQAPGKERELVATITSRGGTTYYADSVKGRFTISRDNAKNTVFLQMISLKPEDTAVYYCAVRGLIRFSKYGYWGQGTQVTVSS	high polyreactivity
QVQLVESGGGLVQAGGSLRLSCAASGSTFRAYAMGWYRQAPGKERELVAAISRSGGSTYYADSVKGRFTISRDNAKNTVYLQMNSLKPEDTAVYYCNAAYKNYQYRPPNIDGQGDYWGQGTQVTVSS	high polyreactivity
QVQLVESGGGLVQAGGSLRLSCSASGLIFWAYAMGWYRQAPGKERELVAAINWRGGSTYYADSVKGRFTISRDNAKNTVYLQMNSLKPEDTAVYYCNTDFQLGEGGSYGYDYWGQGTQVTVSS	low polyreactivity
QVQLVESGGGLVQAGGSLRLSCAASGRIFSYNAMGWYRQAPGKERELVAAISSGGSTYYADSVKGRFTISRDNAKNTVYLQMNSLKPEDTAVYYCAADRRYYSDMYYWGQGTQVTVSS	low polyreactivity

Sequence	polyreactivity (PSR sort gate)
QVQLVESGGGLVQAGGSLRLSCAASGFTFQSYAMGWYRQAPGKERELVATIRTRGGSTSYADSVKGRFTISRDNAKNTVYLQMNSLKPEDTAVYYCNGRLSYRSAWYYGGDRYDYWGQGTQVTVSS	high polyreactivity
QVQLVESGGGLVQAGCSLRLSCAASGRTFLLYAMGWYRQAPGKERELVAAITWGGGSTYYADSVKGRFTISRDNAKNIVYLQMNCLKPEDTAVYYCNAYYWSRMDYWGQGTQVTVSS	low polyreactivity
QFQLVESGGGLVQAGGSLPLSCAASGRTFGGNTMGRYREAPGKERELVAAISRRGGSTYYADSVKGRFTISRDNAKNTVYLQMNSLKPEDTAVYYCNKDGPSYSSYDYWGQGTQVTVSS	low polyreactivity
QVQLVESGGGLVQAGGSLRLSCAASGGTFQSNAKGWYRQAPGKERELVASITSRGSSTYYADSVKGRFTISRDNAKNTVYLQMNSLKPEDTAVFYCAKGRSLQMYYKGGIKGGYWGQGTQVTVSS	low polyreactivity
QVQLVESGGGLVQAGGSLRLTCAASGNNYLDNAMGWYRQAPGKERELVASITRSGSRTYYADSVKGRFTISRDNAKNTGYFQMNSLKPEDTAVFYCNAGVNERQYDYWGLGTQVTVSS	high polyreactivity
QVQLVESGGGLVQAGGSLRLSCAASGSIFPGYAMGWYRQAPGKERELVAGITWSDARTYYADSVKGRFTISRDNAKNTVYLQMNCLKPEDTAVYYCAADYYYYELDYWGKGTQVTVSS	low polyreactivity
QDQLVESGGGLVQAGGSLRLSCSAYGSILKNNAMGLYIQSPGQERELVAAISSDGSTNYADSVKGRFRISRDNAKNTVYLQMNSLKPEDTAVYYCAAHDNGAWVRMDYWGQGTQVTVSS	low polyreactivity
QVQLVESGGGLVQAGGSLRLSCAASGSIFIANTMGWYRQAPGKERELVAAISSDGGSTYYADSVKGRFTISRDNAKNTVYLQMNSLKPVDTAVYYCAVDGLEIGDTGFDYWGQGTQVTVSS	low polyreactivity
QVQLVESGGGLVQAGASLRLSCAASGSIFGGYGMGWYRQAPGKERELVAAITSRVGSTYYADSVKGRFTSSRDNAKNTVYLQLNSLNPEDTAVYYCAAKRIYSWGRWTGDYWGQGTQVTVSS	high polyreactivity
QVQLVESAGGLVQAGGSLRLSCAASGSTYTSYAMGWYRQAPGKERELVAAITRNGGTTYYADSVKGRFTLSRDNAKNTVYLQMNSLKPEDTAVYYCNAPHYYYITSDRRFDYWGQGTQVTVSS	low polyreactivity
QVQLVESGGGLVQAGGSLRLSCAASGRTFFPNAMGWYRQAPGKERELVAAISSGGGGTYYADSVKGRFTISRDNAKNTVYLQMISLKPEDTAVYYCAARNSKVEEEGNYWGQGTQVTVSS	low polyreactivity
QVQLVESGVGLVQAGGSLRLSCAASGSTFYVYTMGWYRQAPGKERELVAAISLSGDNTYYADSVKGRFTISRDNAKNTVYLQMNSLKPEDTAVYYCAADVFYSPSAQKYDSWGQGTQVTVSS	low polyreactivity
QVQLVESGGGLVQAGGSLRLSCAASGSTSSNNAMGWYRQAPGKEREFVADISSRGGSTYYADSVKGRFTISRDNAKNTVYLQMNSLKPEDTAVYYCARTRFWLRYRLFDYWGQGTHVTVSS	low polyreactivity
QVQLVESGGGLVQAGGSLRLSCAASGYTFGPYAMGWYRQAPGKERELVAAITTRGGSTYYADSVKGRFTISRYNAKNTVYLQMNSLKPEDTAVYYCAAESIRSDDYWGQGTQVTVSS	high polyreactivity
QVLLEESGGGLVQAGGSLRLSCAASGRIFLRKVMGWYRQAPGKERELVAAISLSGASTYYADSVKGRFTISRDNAKNTVYLQMNCLKPEDTAVYYCAADITILYDYWGQGTQVTVSS	low polyreactivity
KVQLLQTGRGLVQAGGSLRISCAASGRLFWYSDLVWYRQAPGKESELVAAISQRGGSTYYADSVKGSFTISRDNAKNTVYLQMISLKPEDTAGYYCNADFWWAYYPWEYDYWGQGTLVTVSS	high polyreactivity
QVQLVESGGGLVQAGGSLRLSCAASGRTGKNAMGWYRQAPVKERELVAAIRYNGGSTYYADSVKGRFTISRDNAKNTVYLQMNSLKPEDTAVYYCAAASRRHNGSAFNYWGQGTLVTVSS	high polyreactivity
QVQLVESGGGLVQAGGSLRLSCAASGSILQRNAMGWYRHARGTERELVAAISWSGDNTYYADSVKGRFTISRDNAKNTVYLQMISLKPEDTAVYYCATDDDIYFQEYDYWGQGTQVTVSA	low polyreactivity
QVQLVESGGGLVQAGGSLRLSCAASGRTSYTYTMGWYRQAPGKERELVAAISWNAGSTYYADSVKGRFTISRDNAKNTVSLQMNSLKPEDTAVYYCNRRIFGGQRMYYWGQGTQVTVSS	high polyreactivity
QVQLVESGGGLVQAGGSLRLSCAASGSTLRYYAMGWYRQAPGKEREFVAAISWRGGSTYYADSVKGRFTISRDNAKNTVYLQMNSLKPEDTAVYYCAAKALYAYRLYDYWGQGTQVTVSS	high polyreactivity
QVQLVESGGGLVQAGGSLRLSCAASGSTFVIYGMGWYRQAPGKERELVADITWIGGSTYYADSVKGRFTISRDNAKNTVYLQMNSLKPEDTAVYYCAADAAYLYLYNWYDTEDDYWGQGTQVTVSS	low polyreactivity

Reference: the nanobody polyreactivity screen of Harvey et al. (2022)
